Test results published in publication PMC7352286, “The Heterooligomerization of Human Small Heat Shock Proteins Is Controlled by Conserved Motif Located in the N-Terminal Domain” (International Journal of Molecular Sciences, 2020).

B1: HspB6 R27A (natural protein, human, UniProt O14558 1-160, looked up)
chain: MEIPVPVQPSWLRRASAPLPGLSAPGALFDQRFGEGLLEAELAALCPTTLAPYYLRAPSVALPVAQVPTDPGHFSVLLDVKHFSPEEIAVKVVGEHVEVHARHEERPDEHGFVAREFHRRYRLPPGVDPAAVTSALSPEGVLSIQAAPASAQAPPPAAAK
notes: also called R/A HspB6; R/A mutant of HspB6; source: E. coli BL21(DE3) pLysS, purified (ammonium sulfate, HiTrap Phenyl-Sepharose, Superdex 200)
B2: HspB6 Δ26–30 (natural protein, human, UniProt O14558 1-160, looked up)
chain: MEIPVPVQPSWLRRASAPLPGLSAPQRFGEGLLEAELAALCPTTLAPYYLRAPSVALPVAQVPTDPGHFSVLLDVKHFSPEEIAVKVVGEHVEVHARHEERPDEHGFVAREFHRRYRLPPGVDPAAVTSALSPEGVLSIQAAPASAQAPPPAAAK
notes: also called Δ HspB6; Δ mutant of HspB6; source: E. coli BL21(DE3) pLysS, purified (ammonium sulfate, HiTrap Phenyl-Sepharose, Superdex 200)

Assays:
[1] = target: T1, wild-type human small heat shock protein HspB6 (human), O14558; experiment: SEC; isolated protein on Superdex 200 HR 10/30 in buffer B; apparent molecular weight against standards; conditions: remark: other sources report otherwise
T1 chain: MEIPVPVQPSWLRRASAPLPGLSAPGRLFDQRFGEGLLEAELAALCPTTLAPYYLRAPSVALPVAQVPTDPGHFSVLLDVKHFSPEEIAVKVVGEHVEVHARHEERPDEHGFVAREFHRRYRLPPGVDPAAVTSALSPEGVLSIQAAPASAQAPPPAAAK

[2] = target: T2, wild-type human small heat shock protein HspB6 (human, UniProt O14558 1-160); experiment: SEC; equimolar mixture (30–40 µM each), reduced, preincubated 1 h at 42 °C in buffer B (20 mM Tris-acetate, 150 mM NaCl, 0.1 mM EDTA, 15 mM mercaptoethanol); Superdex 200 HR 10/30; fractions on SDS gels; correlation coefficient and molar ratio from band intensities; conditions: both partners purified
T2 construct: HspB6, human, UniProt O14558; WT cDNA in pET22b or pET23a, parent of the full-size mutants; No tag is named; also called WT HspB6; source: E. coli BL21(DE3) pLysS, purified (ammonium sulfate, HiTrap Phenyl-Sepharose, Superdex 200)
T2 sequence (looked up): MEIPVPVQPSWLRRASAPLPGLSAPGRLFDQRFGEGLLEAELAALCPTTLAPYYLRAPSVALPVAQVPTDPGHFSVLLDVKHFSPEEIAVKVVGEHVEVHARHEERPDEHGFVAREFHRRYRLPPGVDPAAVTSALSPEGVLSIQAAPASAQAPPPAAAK

HspB6 R27A = target: B1; experiment: as above; conditions: both partners purified
HspB6 Δ26–30 = target: B2; experiment: as above; conditions: both partners purified
[3] = target: the molecule itself; experiment: SEC; isolated protein on Superdex 200 HR 10/30 in buffer B; apparent molecular weight against standards

Binder | correlation coefficient [2] | binding result [3] | other results
wild-type human small heat shock protein HspB6, O14558 1-160 (natural protein) MEIPVPVQPSWLRRASAPLPGLSAPGRLFDQRFGEGLLEAELAALCPTTLAPYYLRAPSVALPVAQVPTDPGHFSVLLDVKHFSPEEIAVKVVGEHVEVHARHEERPDEHGFVAREFHRRYRLPPGVDPAAVTSALSPEGVLSIQAAPASAQAPPPAAAK | – | – | stoichiometry N [1]: 2
wild-type human small heat shock protein HspB5 (natural protein, UniProt P02511 1-175, looked up, WT cDNA in pET22b or pET23a, parent of the full-size mutants; No tag is named; Forms large homooligomers; also called WT HspB5; source: E. coli BL21(DE3) pLysS, purified (ammonium sulfate, HiTrap Q, Superdex 200)) MDIAIHHPWIRRPFFPFHSPSRLFDQFFGEHLLESDLFPTSTSLSPFYLRPPSFLRAPSWFDTGLSEMRLEKDRFSVNLDVKHFSPEELKVKVLGDVIEVHGKHEERQDEHGFISREFHRKYRIPADVDPLTITSSLSSDGVLTVNGPRKQVSGPERTIPITREEKPAVTAAPKK | 0.99 | binds | stoichiometry N [2]: ~2 HspB5/HspB6 molar ratio; correlation coefficient (HspB6 R27A): 0.99; correlation coefficient (HspB6 Δ26–30): 0.98
HspB5 R22A (natural protein, human, UniProt P02511 1-175, looked up, also called R/A HspB5; R/A mutant of HspB5; source: E. coli BL21(DE3) pLysS, purified (ammonium sulfate, HiTrap Q, Superdex 200)) MDIAIHHPWIRRPFFPFHSPSALFDQFFGEHLLESDLFPTSTSLSPFYLRPPSFLRAPSWFDTGLSEMRLEKDRFSVNLDVKHFSPEELKVKVLGDVIEVHGKHEERQDEHGFISREFHRKYRIPADVDPLTITSSLSSDGVLTVNGPRKQVSGPERTIPITREEKPAVTAAPKK | 0.99 | binds | –
HspB5 Δ21–25 (natural protein, human, UniProt P02511 1-175, looked up, also called Δ HspB5; Δ mutant of HspB5; source: E. coli BL21(DE3) pLysS, purified (ammonium sulfate, HiTrap Q, Superdex 200)) MDIAIHHPWIRRPFFPFHSPQFFGEHLLESDLFPTSTSLSPFYLRPPSFLRAPSWFDTGLSEMRLEKDRFSVNLDVKHFSPEELKVKVLGDVIEVHGKHEERQDEHGFISREFHRKYRIPADVDPLTITSSLSSDGVLTVNGPRKQVSGPERTIPITREEKPAVTAAPKK | 0.98 | binds | –
B1 | – | binds | –
B2 | – | binds | –
